Measured values reported in PMC9638019, “The archetypal gene transfer agent RcGTA is regulated via direct interaction with the enigmatic RNA polymerase omega subunit”.

Tests used:
[1] = target: MBP-GafA-Cx^87–382 (R. capsulatus); experiment: SEC; analytical gel filtration, Superdex 200 increase 10/200 GL, MBP binding buffer (200 mM NaCl, 20 mM Tris, 1 mM EDTA; pH 7.4); molecular weight estimated from a standard curve
[2] = target: MBP-GafA-C^221–382 (R. capsulatus); experiment: as above
[3] = target: Maltose Binding Protein-GafA fusion protein (R. capsulatus); experiment: as above
[4] = target: T1, GafA-Nc1-86 (UniProt D5AUH1 1-86); experiment: EMSA; non-specific; 25 mM HEPES pH 8.0, 50 mM K-glutamate, 50 mM MgSO4, 1 mM DTT, 0.1 mM EDTA, 0.05% Triton X-100, 4% glycerol, 1 ug poly dI:dC per 10 ul, 80 nM Cy5-dsDNA, 30 min room temperature; 7% acrylamide, 1x TBE; details: protein: recombinant; tags: none (MBP removed with 3C protease); label: 5'-Cy5 on one strand; blunt
T1 sequence: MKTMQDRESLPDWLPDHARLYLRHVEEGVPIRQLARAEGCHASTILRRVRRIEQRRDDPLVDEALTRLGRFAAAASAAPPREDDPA

[5] = target: T1, GafA-Nc1-86; experiment: EMSA; non-specific: shift lost with 500-fold non-specific competitor; 25 mM HEPES pH 8.0, 50 mM K-glutamate, 50 mM MgSO4, 1 mM DTT, 0.1 mM EDTA, 0.05% Triton X-100, 4% glycerol, 1 ug poly dI:dC per 10 ul, 80 nM Cy5-dsDNA, 30 min room temperature; 7% acrylamide, 1x TBE; details: protein: recombinant; tags: none (MBP removed with 3C protease); label: 5'-Cy5 on one strand; blunt
[6] = target: T2, MBP-GafA-C221-382 (UniProt D5AUH1 221-382); experiment: EMSA; poly dI:dC; 25 mM HEPES pH 8.0, 50 mM K-glutamate, 50 mM MgSO4, 1 mM DTT, 0.1 mM EDTA, 0.05% Triton X-100, 4% glycerol, 1 ug poly dI:dC per 10 ul, 80 nM Cy5-dsDNA, 30 min room temperature; 7% acrylamide, 1x TBE; details: protein: recombinant; tags: N-terminal MBP; chain copies: 2; label: 5'-Cy5 on one strand; blunt
T2 sequence: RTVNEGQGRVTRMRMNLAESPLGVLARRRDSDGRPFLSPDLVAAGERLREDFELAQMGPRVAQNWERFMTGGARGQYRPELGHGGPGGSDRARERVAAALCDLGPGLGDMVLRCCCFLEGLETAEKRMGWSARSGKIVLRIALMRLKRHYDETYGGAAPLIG

[7] = target: T1, GafA-Nc1-86; experiment: EMSA; specific: shift remains with 500-fold non-specific competitor; 25 mM HEPES pH 8.0, 50 mM K-glutamate, 50 mM MgSO4, 1 mM DTT, 0.1 mM EDTA, 0.05% Triton X-100, 4% glycerol, 1 ug poly dI:dC per 10 ul, 80 nM Cy5-dsDNA, 30 min room temperature; 7% acrylamide, 1x TBE; details: protein: recombinant; tags: none (MBP removed with 3C protease); label: 5'-Cy5 on one strand; blunt

MBP-GafA-Cx^87–382 (domain or fragment)
stoichiometry N [1]: 2

MBP-GafA-C^221–382 (domain or fragment)
stoichiometry N [2]: 2

Maltose Binding Protein-GafA fusion protein (natural protein)
stoichiometry N [3]: 2

B1: pGafA2 (dsDNA)
DNA 1: TGCAGATGCCGTTTGCGCTATCTGACTGCCAGCCTGTCGATGGGAGACCGGAGATGAAGA
DNA 2: TCTTCATCTCCGGTCTCCCATCGACAGGCTGGCAGTCAGATAGCGCAAACGGCATCTGCA
binding result [4]: binds

B2: pGTA2 (dsDNA)
DNA 1: TTTGCGAACGCTTCAAGGTAGAGATAAGGCATGCTAGGAGAGGTGGGCAA
DNA 2: TTGCCCACCTCTCCTAGCATGCCTTATCTCTACCTTGAAGCGTTCGCAAA
binding result [5]: binds
binding result [6]: binds

B3: pGTA1 (dsDNA)
DNA 1: TCCGGGGTTTTTTCTTTTCAGCGGGTGCAACCCTGAATATAGCACTTGAC
DNA 2: GTCAAGTGCTATATTCAGGGTTGCACCCGCTGAAAAGAAAAAACCCCGGA
binding result [7]: binds

B4: pGTA4 (dsDNA)
DNA 1: TTCATTTCGCTCGTGCGGACAGGCATGAGAGGCGGGTCACGCAAGACATG
DNA 2: CATGTCTTGCGTGACCCGCCTCTCATGCCTGTCCGCACGAGCGAAATGAA
binding result [5]: binds

B5: pGafA1 (dsDNA)
DNA 1: TCGAGATCGCCCCATTTCTTAACCAAGGGGTAACCAAAGCAACCCACGGT
DNA 2: ACCGTGGGTTGCTTTGGTTACCCCTTGGTTAAGAAATGGGGCGATCTCGA
binding result [4]: binds

B6: pGafA3 (dsDNA)
DNA 1: CGCTCAACCGAACGCTGCGTTTGGAAATCTTTAGAGTTTATAAAGAATTT
DNA 2: AAATTCTTTATAAACTCTAAAGATTTCCAAACGCAGCGTTCGGTTGAGCG
binding result [6]: binds

B7: pGTA3 (dsDNA)
DNA 1: GCGCCGCGGGTGACCGTGTGCGCTTTTTTCATTTCGCTCGTGCGGACAGG
DNA 2: CCTGTCCGCACGAGCGAAATGAAAAAAGCGCACACGGTCACCCGCGGCGC
binding result [7]: binds
